Results on two proteins are retold here after article PMC6702468.

Substrate in the data set: O[Si](O)(O)O
The experiment in a line: cells, lysate or membranes. The following applies: unit not printed beside Km, taken from [Si]ext in mM.

B1: NsLsi1 (NsNIP2-1) (Nicotiana sylvestris) (protein)
chain: MESERGNSTENKKPNELVSVENPKSNLSFRYILIFFQEHYPPGFLKKVIAEVIATYLLVFVTCGAAAISASDEHKVSRLGASVAGGLIVTVMIYAVGHISGAHMNPAVTFAFAAVRHFPWRQVPPYAAAQLTGATSAAFTLRVLLHPIKHVGTTTPSGSDIQALIMEIVVTFSMMFITSAVATDTKAIGELAGMAVGSAVCITSILAGPVSGGSMNPARTIGPAMASNDYRGIWVYIIGPVCGTLLGAWSYNFIRVTDKPVHAIAPGQSFSFKLRRMKSNDEEQGV
Take B1: the Km (3 hr exposure in modified Barth's solution pH 7.4, room temperature, H2O-injected background subtracted, transport, R2 = 0.90, pH 7.4) was 0.94 ± 0.30 mM.

B2: NsLsi1 (NsNIP2-1) (Nicotiana sylvestris; P125F) (protein)
chain: MESERGNSTENKKPNELVSVENPKSNLSFRYILIFFQEHYPPGFLKKVIAEVIATYLLVFVTCGAAAISASDEHKVSRLGASVAGGLIVTVMIYAVGHISGAHMNPAVTFAFAAVRHFPWRQVPFYAAAQLTGATSAAFTLRVLLHPIKHVGTTTPSGSDIQALIMEIVVTFSMMFITSAVATDTKAIGELAGMAVGSAVCITSILAGPVSGGSMNPARTIGPAMASNDYRGIWVYIIGPVCGTLLGAWSYNFIRVTDKPVHAIAPGQSFSFKLRRMKSNDEEQGV
On to B2, for which, for the setting “otherwise as WT, paper states a linear equation fits best (R2 = 0.99) and Km lies far above the tested range (up to 2 mM)”, the Km was 12.83 ± 8.49 mM.

Usually Km stands for the substrate concentration at which the rate is half of its maximum.
